# Source: patent publication US20170129954A1 (PROTHENA BIOSCIENCES, published 2017)
# Residue numbers refer to the chain shown, from its start.
# T1: MCAM Y318A mutant, purified protein from a stable cell line (human, UniProt P43121 24-559, limits assumed)
# T1 chain: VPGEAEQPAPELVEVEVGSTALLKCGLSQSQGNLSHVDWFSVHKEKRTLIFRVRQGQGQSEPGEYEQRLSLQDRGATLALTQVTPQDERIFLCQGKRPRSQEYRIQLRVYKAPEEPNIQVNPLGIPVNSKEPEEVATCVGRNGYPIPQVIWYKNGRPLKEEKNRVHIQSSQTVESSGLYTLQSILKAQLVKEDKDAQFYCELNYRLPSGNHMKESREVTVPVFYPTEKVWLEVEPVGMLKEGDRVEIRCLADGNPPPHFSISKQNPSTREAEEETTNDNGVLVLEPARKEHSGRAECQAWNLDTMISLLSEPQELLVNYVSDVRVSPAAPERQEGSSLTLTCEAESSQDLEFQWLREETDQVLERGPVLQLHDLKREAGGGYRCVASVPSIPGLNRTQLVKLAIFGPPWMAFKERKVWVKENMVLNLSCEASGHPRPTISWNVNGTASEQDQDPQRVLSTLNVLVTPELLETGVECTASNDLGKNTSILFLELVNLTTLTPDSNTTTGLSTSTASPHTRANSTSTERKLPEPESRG
# T2: human MCAM C272A mutant (shotgun mutagenesis library, on BHK cells) (human, UniProt P43121 24-646)
# T2 chain: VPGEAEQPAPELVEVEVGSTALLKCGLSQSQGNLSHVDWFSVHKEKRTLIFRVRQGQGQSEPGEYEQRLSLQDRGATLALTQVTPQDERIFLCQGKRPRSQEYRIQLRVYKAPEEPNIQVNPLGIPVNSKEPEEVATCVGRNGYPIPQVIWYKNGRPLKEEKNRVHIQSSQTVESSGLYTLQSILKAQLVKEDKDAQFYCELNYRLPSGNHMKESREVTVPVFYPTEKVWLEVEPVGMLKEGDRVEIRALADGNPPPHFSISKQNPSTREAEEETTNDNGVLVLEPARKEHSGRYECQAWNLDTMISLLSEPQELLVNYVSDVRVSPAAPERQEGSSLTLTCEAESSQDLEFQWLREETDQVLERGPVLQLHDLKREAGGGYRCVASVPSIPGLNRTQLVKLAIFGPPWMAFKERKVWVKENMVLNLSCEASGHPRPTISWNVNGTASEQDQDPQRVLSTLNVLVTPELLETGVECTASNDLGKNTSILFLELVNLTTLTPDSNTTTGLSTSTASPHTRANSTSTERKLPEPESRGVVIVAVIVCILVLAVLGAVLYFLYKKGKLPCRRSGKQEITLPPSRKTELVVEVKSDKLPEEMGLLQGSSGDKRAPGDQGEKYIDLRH
# T3: human MCAM Y318A mutant (shotgun mutagenesis library, on BHK cells) (human, UniProt P43121 24-646)
# T3 chain: T2 chain with A249C, Y295A
# T4: human MCAM V340A mutant (shotgun mutagenesis library, on BHK cells) (human, UniProt P43121 24-646)
# T4 chain: T2 chain with A249C, V317A
# B1: mouse anti-human MCAM monoclonal antibody clone 1749.1.3 (antibody, V domains shown)
# VH: DVKLVESGGDLVKPGGSLKLSCAASGFTFSSYIMSWVRQTPEKRLEWVATISSGGSSTYYPDSVKGRFTISRDNAKNTLYLQMSSLKSEDTAMYYCTRDDDYDVKVFAYWGQGTLVTVSA
# VL: DIVMSQSPSSLAVSAGEKVTMNCKSSRSLLNSRIRKNYLAWYQQKPGQSPKLLIYWASTRESGVPDRFTGSGSGTDFTLTISSVQAEDLAVYYCKQSYNLLTFGAGTKLELK
# notes: Mouse hybridoma monoclonal antibody; also called m1749
# Tests used:
# [1] = target: T1, MCAM Y318A mutant, purified protein …; assay: ForteBio BLI with purified protein
# Method: To further confirm the data, stable cell lines expressing I141A, P145V, D216A and Y318A respectively were generated. Fortebio assays were performed with the purified proteins as described above. The control ABX-MA1 antibody bound to wild type MCAM and the MCAM mutants.
# [2] = target: T2, human MCAM C272A mutant (shotgun …); assay: shotgun mutagenesis library, immunofluorescence on BHK cells, 0.5 µg/mL antibody
# Method: (§1) Secondary antibodies from Jackson ImmunoResearch were used at 1:400 for MAb and sera detection.
# (§2) The mutation library was assayed for surface expression (mouse sera binding) and monoclonal antibody binding, in triplicate. Each raw data point was background-subtracted and normalized to the wild type MCAM reactivity values. The mean monoclonal antibody binding value for each clone is plotted as a function of its mean surface expression value (FIG. 1, gray diamonds). Thresholds of <30% monoclonal antibody reactivity and >50% mouse sera binding were applied to identify clones (FIG. 1, black diamonds) that were negative for monoclonal antibody binding but positive for surface expression.
# [3] = target: T3, human MCAM Y318A mutant (shotgun …); assay: as above
# Method: as §1, §2
# [4] = target: T4, human MCAM V340A mutant (shotgun …); assay: as above
# Method: as §1, §2
binder,measurement,setting,value
B1,binding result,[1],no binding
same,binding result,[2],no binding (tested: <30% WT)
same,binding result,[3],no binding (tested: <30% WT)
same,binding result,[4],no binding (tested: <30% WT)
